Laboratory results reported in paper PMC4108180.

How the values were obtained:
Assay in all cases: purified protein
purified protein [1] = substrate: NC(=O)c1ccc[n+]([C@@H]2O[C@H](COP(=O)(O)OP(=O)(O)OC[C@H]3O[C@@H](n4cnc5c(N)ncnc54)[C@H](O)[C@@H]3O)[C@@H](O)[C@H]2O)c1; conditions: with L-galactose, 50 mM BICINE pH 8.0, 30 °C, varied: cofactor
purified protein [2] = substrate: O=C(O)[C@@H](O)[C@H](O)[C@H](O)[C@@H](O)CO; conditions: 0.5 mM NAD+, 50 mM phosphate pH 7.5, 30 °C
purified protein [3] = substrate: O=C(O)[C@@H](O)[C@H](O)[C@@H](O)[C@@H](O)CO; conditions: 0.5 mM NAD+, 50 mM phosphate pH 7.5, 30 °C
purified protein [4] = substrate: O=C1O[C@@H](CO)[C@@H](O)[C@@H]1O; conditions: 2.5 mM MOPS pH 7.1, 0.2 M NaCl, 1% DMSO, 30 °C
purified protein [5] = substrate: O=C1O[C@H](CO)[C@@H](O)[C@@H]1O; conditions: 2.5 mM MOPS pH 7.1, 0.2 M NaCl, 1% DMSO, 30 °C
purified protein [6] = substrate: C[C@H]1C[C@@H](O)[C@H](O)C(=O)O1; conditions: 2.5 mM MOPS pH 7.1, 0.2 M NaCl, 1% DMSO, 30 °C
purified protein [7] = substrate: O=C1O[C@H]([C@@H](O)CO)[C@@H](O)[C@@H]1O; conditions: 2.5 mM MOPS pH 7.1, 0.2 M NaCl, 1% DMSO, 30 °C
purified protein [8] = substrate: O=C1O[C@@H](CO)[C@H](O)[C@@H](O)[C@@H]1O; conditions: 2.5 mM MOPS pH 7.1, 0.2 M NaCl, 1% DMSO, 30 °C
purified protein [9] = substrate: C[C@H](O)[C@H]1OC(=O)[C@@H](O)[C@@H]1O; conditions: 2.5 mM MOPS pH 7.1, 0.2 M NaCl, 1% DMSO, 30 °C

B1: Bvu0219 (Phocaeicola vulgatus ATCC 8482) (protein)
chain: MNYNEIGKTGMRVSNLSFGASSLGGVFHDIREAEGIKAVYTAVENGMNFIDVSPYYGHYKAETVLGKALKEIPRDKYYLSTKVGRYGKDGVNTWDYSGKRATESVYESLDRLHIEYIDLINVHDVEFSDMNQVVNETLPALVELKKKGIVGHVGITDLQLENLKWIIDHSEPGTVESVLNFCHYCLNDEKLTDYLDYFESKNIGIINASPLSMGLLSQRGVPAWHPAPQSLVEACRKAVQHCLSKNYPIEKLAIQYSVSNPRIATTLFSSANPDNVLKNITYAEEPIDWNLVKEVQEIIGKQMRISWANS
Purified protein [1]
  Km: 3000 ± 200 µM
  kcat: 25 ± 1 s⁻¹
  kcat/Km: 9000 ± 100 M⁻¹ s⁻¹

B2: Bvu0222 (Phocaeicola vulgatus ATCC 8482) (protein)
chain: MKAIQITAPSEMKVVDIEKPVLEPGEVLVKIKYVGFCGSDLNTFLGRNPMVKLPVIPGHEVGAVIEAVGKDVPDSLKPGMSVTVNPYTNCGKCASCRNGRVNACEHNETLGVQRNGAMCEYIALPWSKIIPAHRIPPRDCALIEPMSVGFHAVSRAQVTDIDIVMVIGCGMIGMGAIVRSALRGATVIAVDLDDEKLELAKRIGAHHTINSMTENVHECLTKITEGLGPDVVIEAVGSPATYVMAVNEVGFTGRVVCIGYAKSEVSFQTKYFVQKELDIRGSRNALPTDFRAVIRYMEQGTCPKNELISKVVKPEAAIQAMKEWAAAPGKVFRILVEFD
Purified protein [2]
  Km: 36 ± 3 µM
  kcat: 0.6 ± 0.1 s⁻¹
  kcat/Km: 17000 ± 1000 M⁻¹ s⁻¹
Purified protein [3]
  Km: 510 ± 70 µM
  kcat: 0.2 ± 0.1 s⁻¹
  kcat/Km: 390 ± 60 M⁻¹ s⁻¹

B3: Bvu0220 (Phocaeicola vulgatus ATCC 8482) (protein)
chain: MMDFNIIDAHSHLWLRQDTEVNGLPIRTLTNGRSLFMGEERQMVPPFMIDGRNSAEVFLSNMDYAQVSAAVVTQEFIDGIQNEYLAKVSHKYPDRFFVCGMCEFRKPGYLQQAKELISSGFKAIKIPAHRLFLKEGRVMLNSDEMMEMFHYMQEKDIILSIDLADGDTQVQEMKEIIQEYPQLRIAIGHFGMVTTPHWQEQIKLARHKNVMIESGGITWLFNSEFYPFHGAVKAIKEAADLVGMDKLMWGSDYPRTITAITYKMSYDFILKTTEMTQEEKALFLGKNAERFYGFKNLISLPYIKNMSE
Purified protein [4]
  Km: 5500 ± 550 µM
  kcat: 5.3 ± 0.4 s⁻¹
  kcat/Km: 930 ± 40 M⁻¹ s⁻¹
Purified protein [5]
  Km: 1700 ± 140 µM
  kcat: 1 ± 0.1 s⁻¹
  kcat/Km: 500 ± 30 M⁻¹ s⁻¹
Purified protein [6]
  Km: 32 ± 4 µM
  kcat: 23 ± 1 s⁻¹
  kcat/Km: 720000 ± 80000 M⁻¹ s⁻¹
Purified protein [7]
  Km: 1950 ± 310 µM
  kcat: 34 ± 3 s⁻¹
  kcat/Km: 18000 ± 2000 M⁻¹ s⁻¹
Purified protein [8]
  Km: 500 ± 40 µM
  kcat: 38 ± 1 s⁻¹
  kcat/Km: 80000 ± 5000 M⁻¹ s⁻¹
Purified protein [9]
  Km: 1320 ± 210 µM
  kcat: 23 ± 2 s⁻¹
  kcat/Km: 18000 ± 2000 M⁻¹ s⁻¹
